Molecular target: T1, recombinant human IL-1α (human, UniProt P01583 113-271)
T1 sequence (looked up): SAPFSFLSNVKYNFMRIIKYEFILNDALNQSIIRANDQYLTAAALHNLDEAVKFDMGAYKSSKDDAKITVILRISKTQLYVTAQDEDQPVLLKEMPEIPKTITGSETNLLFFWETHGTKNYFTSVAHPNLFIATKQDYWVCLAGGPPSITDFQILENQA
Experiment: cell-based or functional assay

neutralizing activity in the MRC-5 bioassay, fold less than the chimeric Abs: 3 fold
B1: hIL-1a/bDVD1-Ig (bispecific antibody, human IgG1, kappa)
heavy: not shown
light: NIVLTQSPASLAVSLGQRATISCRASESVDSYGNSYMHWYQQKPGQPPKLLIYLASNLESGVPARFSGSGSRTDFTLTIDPVEADDAATYYCQQNNEDPFTFGSGTKLEIKRNIQMTQTTSSLSASLGDRVTISCRASQDISNCLNWYQQKPDGTVKLLIYYTSRLHSGVPSRFSGSGSGTDYSLTISNLEQEDIATYFCQQGKTLPYAFGGGTKLEINRTVAAPSVFIFPPSDEQLKSGTASVVCLLNNFYPREAKVQWKVDNALQSGNSQESVTEQDSKDSTYSLSSTLTLSKADYEKHKVYACEVTHQGLSSPVTKSFNRGEC

— patent publication US20140377805A1 (published 2014)
